Measurements as given in article PMC11697113, “The Hsc70 system maintains the synaptic SNARE protein SNAP-25 in an assembly-competent state and delays its aggregation [image fx2.gif]” (The Journal of Biological Chemistry, 2024).

Biological target: T1, heat shock cognate 70 (Hsc70), human constitutively expressed Hsp70, wild type (human, UniProt P11142 1-646)
T1 construct: Hsc70, the human constitutively expressed Hsp70; also called WT Hsc70; His-Hsc70 (before cleavage); source: E. coli Rosetta (DE3), purified (Ni-NTA, TEV cleavage, second Ni-NTA)
Test: NMR titration; methyl-TROSY (1H-13C HMQC) spectra of Ile δ1-13CH3-labeled Hsc70 (40 μM) without and with unlabeled peptide; 10 mM potassium phosphate pD 7.4, 5 mM DTT, D2O, 25 °C, 600 MHz
Settings: both partners purified

T1 sequence (P11142 whole entry): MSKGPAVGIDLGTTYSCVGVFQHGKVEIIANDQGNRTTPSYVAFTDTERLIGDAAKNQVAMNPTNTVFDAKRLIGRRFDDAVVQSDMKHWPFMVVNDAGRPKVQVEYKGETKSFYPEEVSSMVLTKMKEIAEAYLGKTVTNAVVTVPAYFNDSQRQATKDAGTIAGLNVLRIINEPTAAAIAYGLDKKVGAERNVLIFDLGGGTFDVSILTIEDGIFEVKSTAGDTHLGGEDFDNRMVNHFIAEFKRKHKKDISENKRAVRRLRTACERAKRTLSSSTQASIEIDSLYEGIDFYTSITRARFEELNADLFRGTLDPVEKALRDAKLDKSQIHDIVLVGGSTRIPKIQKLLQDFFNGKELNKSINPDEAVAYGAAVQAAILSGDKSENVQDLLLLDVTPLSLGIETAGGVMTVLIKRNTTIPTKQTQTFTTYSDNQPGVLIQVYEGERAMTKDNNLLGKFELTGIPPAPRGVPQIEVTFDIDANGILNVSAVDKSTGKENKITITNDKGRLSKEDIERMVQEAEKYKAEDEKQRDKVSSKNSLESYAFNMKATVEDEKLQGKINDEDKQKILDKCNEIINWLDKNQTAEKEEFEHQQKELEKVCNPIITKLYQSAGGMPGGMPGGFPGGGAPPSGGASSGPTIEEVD

binding result | Binder
binds | RRMLQLVEESK (also called SNN peptide; source: synthetic peptide) [SNNP peptide of SNAP-25]
binds | EREQMAISGGFIRR (also called SNC peptide; LOOP-SNC peptide; source: synthetic peptide) [SNCP peptide of SNAP-25 (LOOP-SNC site)]
